Biological target: von Willebrand factor (VWF) in plasma of patients with severe COVID-19, P04275

B1: Purified recombinant human ADAMTS13 (rADAMTS13, Takeda, Vienna, Austria) from a Chinese hamster ovary cell line (protein)
chain: AAGGILHLELLVAVGPDVFQAHREDTERYVLTNLNIGAELLRDPSLGAQFRVHLVKMVILTEPEGAPNITANLTSSLLSVCGWSQTINPEDDTDPGHADLVLYITRFDLELPDGNRQVRGVTQLGGACSPTWSCLITEDTGFDLGVTIAHEIGHSFGLEHDGAPGSGCGPSGHVMASDGAAPRAGLAWSPCSRRQLLSLLSAGRARCVWDPPRPQPGSAGHPPDAQPGLYYSANEQCRVAFGPKAVACTFAREHLDMCQALSCHTDPLDQSSCSRLLVPLLDGTECGVEKWCSKGRCRSLVELTPIAAVHGRWSSWGPRSPCSRSCGGGVVTRRRQCNNPRPAFGGRACVGADLQAEMCNTQACEKTQLEFMSQQCARTDGQPLRSSPGGASFYHWGAAVPHSQGDALCRHMCRAIGESFIMKRGDSFLDGTRCMPSGPREDGTLSLCVSGSCRTFGCDGRMDSQQVWDRCQVCGGDNSTCSPRKGSFTAGRAREYVTFLTVTPNLTSVYIANHRPLFTHLAVRIGGRYVVAGKMSISPNTTYPSLLEDGRVEYRVALTEDRLPRLEEIRIWGPLQEDADIQVYRRYGEEYGNLTRPDITFTYFQPKPRQAWVWAAVRGPCSVSCGAGLRWVNYSCLDQARKELVETVQCQGSQQPPAWPEACVLEPCPPYWAVGDFGPCSASCGGGLRERPVRCVEAQGSLLKTLPPARCRAGAQQPAVALETCNPQPCPARWEVSEPSSCTSAGGAGLALENETCVPGADGLEAPVTEGPGSVDEKLPAPEPCVGMSCPPGWGHLDATSAGEKAPSPWGSIRTGAQAAHVWTPAAGSCSVSCGRGLMELRFLCMDSALRVPVQEELCGLASKPGSRREVCQAVPCPARWQYKLAACSVSCGRGVVRRILYCARAHGEDDGEEILLDTQCQGLPRPEPQEACSLEPCPPRWKVMSLGPCSASCGLGTARRSVACVQLDQGQDVEVDEAACAALVRPEASVPCLIADCTYRWHVGTWMECSVSCGDGIQRRRDTCLGPQAQAPVPADFCQHLPKPVTVRGCWAGPCVGQGTPSLVPHEEAAAPGRTTATPAGASLEWSQARGLLFSPAPQPRRLLPGPQENSVQSSACGRQHLEPTGTIDMRGPGQADCAVAIGRPLGEVVTLRVLESSLNCSAGDMLLLWGRLTWRKMCRKLLDMTFSSKTNTLVVRQRCGRPGGGVLLRYGSQLAPETFYRECDMQLFGPWGEIVSPSLSPATSNAGGCRLFINVAPHARIAIHALATNMGAGTEGANASYILIRDTHSLRTTAFHGQQVLYWESESSQAEMEFSEGFLKAQASLRGQYWTLQSWVPEMQDPQSWKGKEGT
Decrease (%) of VWF:CB 0 vs. 5 hrs, plasma B1: 65%
Decrease (%) of VWF:CB 0 vs. 5 hrs, plasma B2: 60%
Decrease (%) of VWF:CB 0 vs. 5 hrs, plasma B5: 65%
Decrease (%) of VWF:CB 0 vs. 5 hrs, plasma B7: 52%
Decrease (%) of VWF:CB 0 vs. 5 hrs, plasma B15: 44%
Decrease (%) of VWF:CB 0 vs. 5 hrs, plasma B18: 63%
Decrease (%) of VWF:CB 0 vs. 5 hrs, plasma S6: 33%
Decrease (%) of VWF:CB 0 vs. 5 hrs, plasma S10: 60%
Decrease (%) of VWF:CB 0 vs. 5 hrs, plasma S12: 53%
Decrease (%) of VWF:CB 0 vs. 5 hrs, plasma S21: 44%
Dimer relative to total multimer content (AUC %) at 0 hrs, plasma B1: 3.6 AUC %
Dimer relative to total multimer content (AUC %) at 0 hrs, plasma B2: 5.4 AUC %
Dimer relative to total multimer content (AUC %) at 0 hrs, plasma B5: 3.7 AUC %
Dimer relative to total multimer content (AUC %) at 0 hrs, plasma B7: 5.3 AUC %
Dimer relative to total multimer content (AUC %) at 0 hrs, plasma B15: 5.1 AUC %
Dimer relative to total multimer content (AUC %) at 0 hrs, plasma B18: 3.6 AUC %
Dimer relative to total multimer content (AUC %) at 0 hrs, plasma S6: 5.4 AUC %
Dimer relative to total multimer content (AUC %) at 0 hrs, plasma S21: 4.9 AUC %
Dimer relative to total multimer content (AUC %) at 5 hrs, plasma B1: 9.1 AUC %
Dimer relative to total multimer content (AUC %) at 5 hrs, plasma B2: 11.3 AUC %
Dimer relative to total multimer content (AUC %) at 5 hrs, plasma B5: 11 AUC %
Dimer relative to total multimer content (AUC %) at 5 hrs, plasma B7: 10.1 AUC %
Dimer relative to total multimer content (AUC %) at 5 hrs, plasma B15: 12.3 AUC %
Dimer relative to total multimer content (AUC %) at 5 hrs, plasma B18: 7 AUC %
Dimer relative to total multimer content (AUC %) at 5 hrs, plasma S6: 7 AUC %
Dimer relative to total multimer content (AUC %) at 5 hrs, plasma S21: 8.5 AUC %
Increase (%) of dimer 0 vs. 5 hrs, plasma B1: 253%
Increase (%) of dimer 0 vs. 5 hrs, plasma B2: 209%
Increase (%) of dimer 0 vs. 5 hrs, plasma B5: 297%
Increase (%) of dimer 0 vs. 5 hrs, plasma B7: 191%
Increase (%) of dimer 0 vs. 5 hrs, plasma B15: 241%
Increase (%) of dimer 0 vs. 5 hrs, plasma B18: 194%
Increase (%) of dimer 0 vs. 5 hrs, plasma S6: 130%
Increase (%) of dimer 0 vs. 5 hrs, plasma S21: 173%
UHMW VWF multimers by semi-automated electrophoresis, plasma B1, 10 IU/mL rADAMTS13: disappearance of all the abnormal UHMW VWF multimers
UHMW multimer quantitation parameter after 5 h with 10 IU/mL rADAMTS13, plasma B1: to a level lower than that observed in control plasma (88%)
UHMW multimer quantitation parameter before incubation, plasma B1 (home cast gels): the elevated UHMW multimer quantitation parameter of 124%
VWF:CB (IU/mL) at 0 hrs, plasma B1, 1 IU/mL rADAMTS13: 3.09 IU/mL
VWF:CB (IU/mL) at 0 hrs, plasma B2, 1 IU/mL rADAMTS13: 1.39 IU/mL
VWF:CB (IU/mL) at 0 hrs, plasma B5, 1 IU/mL rADAMTS13: 2.46 IU/mL
VWF:CB (IU/mL) at 0 hrs, plasma B7, 1 IU/mL rADAMTS13: 3.03 IU/mL
VWF:CB (IU/mL) at 0 hrs, plasma B15, 1 IU/mL rADAMTS13: 2.44 IU/mL
VWF:CB (IU/mL) at 0 hrs, plasma B18, 1 IU/mL rADAMTS13: 2.25 IU/mL
VWF:CB (IU/mL) at 0 hrs, plasma S6, 1 IU/mL rADAMTS13: 2.19 IU/mL
VWF:CB (IU/mL) at 0 hrs, plasma S10, 1 IU/mL rADAMTS13: 6.48 IU/mL
VWF:CB (IU/mL) at 0 hrs, plasma S12, 1 IU/mL rADAMTS13: 3.01 IU/mL
VWF:CB (IU/mL) at 0 hrs, plasma S21, 1 IU/mL rADAMTS13: 3.7 IU/mL
VWF:CB (IU/mL) at 5 hrs, plasma B1, 1 IU/mL rADAMTS13: 2.02 IU/mL
VWF:CB (IU/mL) at 5 hrs, plasma B2, 1 IU/mL rADAMTS13: 0.84 IU/mL
VWF:CB (IU/mL) at 5 hrs, plasma B5, 1 IU/mL rADAMTS13: 1.61 IU/mL
VWF:CB (IU/mL) at 5 hrs, plasma B7, 1 IU/mL rADAMTS13: 1.58 IU/mL
VWF:CB (IU/mL) at 5 hrs, plasma B15, 1 IU/mL rADAMTS13: 1.08 IU/mL
VWF:CB (IU/mL) at 5 hrs, plasma B18, 1 IU/mL rADAMTS13: 1.42 IU/mL
VWF:CB (IU/mL) at 5 hrs, plasma S6, 1 IU/mL rADAMTS13: 0.73 IU/mL
VWF:CB (IU/mL) at 5 hrs, plasma S10, 1 IU/mL rADAMTS13: 3.91 IU/mL
VWF:CB (IU/mL) at 5 hrs, plasma S12, 1 IU/mL rADAMTS13: 1.6 IU/mL
VWF:CB (IU/mL) at 5 hrs, plasma S21, 1 IU/mL rADAMTS13: 1.63 IU/mL
mean VWF:CB of ten patient samples after 5 h incubation with 1 IU/mL rADAMTS13: decreased from 3.01 (SD: 1.37; SEM: 0.434) to 1.64 (SD: 0.89; SEM 0.28) IU/mL
mean VWF:CB of ten patient samples before incubation with 1 IU/mL rADAMTS13: decreased from 3.01 (SD: 1.37; SEM: 0.434) to 1.64 (SD: 0.89; SEM 0.28) IU/mL
reduction in VWF activity at 5 h, plasma B1, 10 IU/mL rADAMTS13: more than a 60% reduction at 5 h
reduction in VWF activity within 5 h, plasma B1, 1 IU/mL rADAMTS13: within 5 h, VFW activity reduced by about 30%
reduction of the UHMW multimer quantitation parameter after 5 h with 1 IU/mL rADAMTS13, plasma B1: reduced by 16% after 5 h of incubation with 1 IU/mL rADAMTS13
reduction of the UHMW multimer quantitation parameter after 5 h with 10 IU/mL rADAMTS13, plasma B1: by 36% with 10 IU/mL rADAMTS13

— US20230201319
